# Assay results taken from US20230039851A1 (ARO BIOTHERAPEUTICS, published 2023).
# Key:
# [1] = molecular target: T1, Human Serum Albumin (human, UniProt P02768 25-609); assay: ELISA, 667 nM FN3 protein on immobilized human albumin
# T1 construct: ELISA: albumin coated on plates; pull-down: endogenous albumin in normal human serum; also called HSA; Human SA
# Experimental: (§1) The FN3 proteins were also tested in an ELISA assay to determine their ability to bind to immobilized human or cynomolgous albumin. The binding of 667 nM B7 and B7 variants to human or cynomolgous albumin are illustrated in Table 7. The negative control is wt Tencon.
# [2] = molecular target: T2, Cynomolgus Serum Albumin (cynomolgus monkey, UniProt A2V9Z4 25-608); assay: ELISA, 667 nM FN3 protein on immobilized cynomolgus albumin
# T2 construct: ELISA: albumin coated on plates; pull-down: endogenous albumin in cynomolgus serum; also called cSA; Cyno SA
# T2 sequence (A2V9Z4 25-608 limits assumed): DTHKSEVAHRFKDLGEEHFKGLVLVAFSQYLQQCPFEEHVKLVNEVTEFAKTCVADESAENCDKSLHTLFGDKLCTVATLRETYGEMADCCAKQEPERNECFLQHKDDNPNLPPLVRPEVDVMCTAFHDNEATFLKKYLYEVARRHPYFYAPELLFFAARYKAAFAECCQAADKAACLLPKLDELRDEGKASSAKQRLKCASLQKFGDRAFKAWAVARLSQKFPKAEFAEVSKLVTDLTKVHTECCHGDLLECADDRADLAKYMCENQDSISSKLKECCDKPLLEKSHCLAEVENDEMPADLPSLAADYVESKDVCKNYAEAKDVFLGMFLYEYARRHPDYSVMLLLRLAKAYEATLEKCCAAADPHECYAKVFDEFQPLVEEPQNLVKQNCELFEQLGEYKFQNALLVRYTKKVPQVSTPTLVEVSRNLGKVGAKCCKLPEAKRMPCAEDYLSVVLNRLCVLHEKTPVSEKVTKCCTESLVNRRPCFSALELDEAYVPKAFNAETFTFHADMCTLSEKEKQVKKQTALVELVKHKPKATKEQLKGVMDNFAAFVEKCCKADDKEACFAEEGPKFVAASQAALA
# Experimental: as §1
# [3] = molecular target: T1, Human Serum Albumin; assay: pull-down of endogenous albumin from human serum
# [4] = molecular target: T2, Cynomolgus Serum Albumin; assay: pull-down of endogenous albumin from cynomolgus serum
# [5] = molecular target: T1, Human Serum Albumin; assay: ELISA on immobilized human albumin
# Experimental: as §1
# [6] = molecular target: T2, Cynomolgus Serum Albumin; assay: ELISA on immobilized cynomolgus albumin
# Experimental: as §1
# T1 sequence (P02768 25-609 limits assumed): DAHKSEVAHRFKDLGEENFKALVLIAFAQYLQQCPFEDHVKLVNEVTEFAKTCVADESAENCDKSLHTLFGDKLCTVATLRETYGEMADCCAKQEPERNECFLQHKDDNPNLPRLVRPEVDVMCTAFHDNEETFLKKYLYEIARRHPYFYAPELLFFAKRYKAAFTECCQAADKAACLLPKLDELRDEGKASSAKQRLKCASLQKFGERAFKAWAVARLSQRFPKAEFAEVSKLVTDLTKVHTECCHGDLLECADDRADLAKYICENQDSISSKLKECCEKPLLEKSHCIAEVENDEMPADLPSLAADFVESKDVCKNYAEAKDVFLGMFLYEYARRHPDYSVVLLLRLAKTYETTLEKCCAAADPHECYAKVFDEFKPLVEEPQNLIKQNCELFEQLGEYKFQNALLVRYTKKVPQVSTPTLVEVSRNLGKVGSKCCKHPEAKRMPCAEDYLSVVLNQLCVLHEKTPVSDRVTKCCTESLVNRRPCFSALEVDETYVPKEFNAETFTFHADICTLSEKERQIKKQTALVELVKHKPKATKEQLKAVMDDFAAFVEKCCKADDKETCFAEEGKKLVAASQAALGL
binder,measurement,setting,value
"A10V (designed binder, Variant of B7; also called B7 A10V; not shown: His tag: FN3 domains were purified as His-tagged proteins) MLPAPKNLVVSRVTEDSARLSWTAPDAAFDSFNIAYWEPGIGGEAIWLRVPGSERSYDLTGLKPGTEYKVWIHGVKGGASSPPLIARFTT",Human Albumin (RLU),[1],23100 RLU
same,Cyno Albumin (RLU),[2],43600 RLU
"A10V, P82A (designed binder, Variant of B7; not shown: His tag: FN3 domains were purified as His-tagged proteins) MLPAPKNLVVSRVTEDSARLSWTAPDAAFDSFNIAYWEPGIGGEAIWLRVPGSERSYDLTGLKPGTEYKVWIHGVKGGASSAPLIARFTT",Human Albumin (RLU),[1],21700 RLU
same,Cyno Albumin (RLU),[2],24100 RLU
"A10V, W37A (designed binder, Variant of B7; not shown: His tag: FN3 domains were purified as His-tagged proteins) MLPAPKNLVVSRVTEDSARLSWTAPDAAFDSFNIAYAEPGIGGEAIWLRVPGSERSYDLTGLKPGTEYKVWIHGVKGGASSPPLIARFTT",binding result,[3],no binding
same,binding result,[4],no binding
same,Human Albumin (RLU),[1],600 RLU
same,Cyno Albumin (RLU),[2],500 RLU
"A10V, I85A (designed binder, Variant of B7; not shown: His tag: FN3 domains were purified as His-tagged proteins) MLPAPKNLVVSRVTEDSARLSWTAPDAAFDSFNIAYWEPGIGGEAIWLRVPGSERSYDLTGLKPGTEYKVWIHGVKGGASSPPLAARFTT",binding result,[3],no binding
same,binding result,[4],no binding
same,Human Albumin (RLU),[1],1000 RLU
same,Cyno Albumin (RLU),[2],2500 RLU
"A10V, W71A (designed binder, Variant of B7; not shown: His tag: FN3 domains were purified as His-tagged proteins) MLPAPKNLVVSRVTEDSARLSWTAPDAAFDSFNIAYWEPGIGGEAIWLRVPGSERSYDLTGLKPGTEYKVAIHGVKGGASSPPLIARFTT",binding result,[3],no binding
same,binding result,[4],no binding
same,Human Albumin (RLU),[1],950 RLU
same,Cyno Albumin (RLU),[2],1600 RLU
"A10V, A79S (designed binder, Variant of B7; not shown: His tag: FN3 domains were purified as His-tagged proteins) MLPAPKNLVVSRVTEDSARLSWTAPDAAFDSFNIAYWEPGIGGEAIWLRVPGSERSYDLTGLKPGTEYKVWIHGVKGGSSSPPLIARFTT",binding result,[3],no binding
same,Human Albumin (RLU),[1],250 RLU
same,Cyno Albumin (RLU),[2],9200 RLU
"A10V, H73A (designed binder, Variant of B7; not shown: His tag: FN3 domains were purified as His-tagged proteins) MLPAPKNLVVSRVTEDSARLSWTAPDAAFDSFNIAYWEPGIGGEAIWLRVPGSERSYDLTGLKPGTEYKVWIAGVKGGASSPPLIARFTT",binding result,[3],no binding
same,binding result,[4],no binding
same,Human Albumin (RLU),[1],550 RLU
same,Cyno Albumin (RLU),[2],600 RLU
"A10V, N33A (designed binder, Variant of B7; not shown: His tag: FN3 domains were purified as His-tagged proteins) MLPAPKNLVVSRVTEDSARLSWTAPDAAFDSFAIAYWEPGIGGEAIWLRVPGSERSYDLTGLKPGTEYKVWIHGVKGGASSPPLIARFTT",binding result,[3],no binding
same,binding result,[4],no binding
same,Human Albumin (RLU),[1],2350 RLU
same,Cyno Albumin (RLU),[2],1500 RLU
"A10V, G40A (designed binder, Variant of B7; not shown: His tag: FN3 domains were purified as His-tagged proteins) MLPAPKNLVVSRVTEDSARLSWTAPDAAFDSFNIAYWEPAIGGEAIWLRVPGSERSYDLTGLKPGTEYKVWIHGVKGGASSPPLIARFTT",Human Albumin (RLU),[1],69800 RLU
same,Cyno Albumin (RLU),[2],64400 RLU
"A10V, P39A (designed binder, Variant of B7; not shown: His tag: FN3 domains were purified as His-tagged proteins) MLPAPKNLVVSRVTEDSARLSWTAPDAAFDSFNIAYWEAGIGGEAIWLRVPGSERSYDLTGLKPGTEYKVWIHGVKGGASSPPLIARFTT",Human Albumin (RLU),[1],107000 RLU
same,Cyno Albumin (RLU),[2],73600 RLU
"A10V, I41A (designed binder, Variant of B7; not shown: His tag: FN3 domains were purified as His-tagged proteins) MLPAPKNLVVSRVTEDSARLSWTAPDAAFDSFNIAYWEPGAGGEAIWLRVPGSERSYDLTGLKPGTEYKVWIHGVKGGASSPPLIARFTT",Human Albumin (RLU),[1],50600 RLU
same,Cyno Albumin (RLU),[2],46200 RLU
"B7 (designed binder, FN3 domain (Tencon27-based library clone) expressed in E. coli; also called ALB40; not shown: His tag: FN3 domains were purified as His-tagged proteins) MLPAPKNLVASRVTEDSARLSWTAPDAAFDSFNIAYWEPGIGGEAIWLRVPGSERSYDLTGLKPGTEYKVWIHGVKGGASSPPLIARFTT",Human Albumin (RLU),[1],97400 RLU
same,Cyno Albumin (RLU),[2],145000 RLU
"A10V, R49A (designed binder, Variant of B7; not shown: His tag: FN3 domains were purified as His-tagged proteins) MLPAPKNLVVSRVTEDSARLSWTAPDAAFDSFNIAYWEPGIGGEAIWLAVPGSERSYDLTGLKPGTEYKVWIHGVKGGASSPPLIARFTT",Human Albumin (RLU),[1],1020 RLU
same,Cyno Albumin (RLU),[2],1150 RLU
"A10V, W47A (designed binder, Variant of B7; not shown: His tag: FN3 domains were purified as His-tagged proteins) MLPAPKNLVVSRVTEDSARLSWTAPDAAFDSFNIAYWEPGIGGEAIALRVPGSERSYDLTGLKPGTEYKVWIHGVKGGASSPPLIARFTT",binding result,[3],no binding
same,binding result,[4],no binding
same,Human Albumin (RLU),[1],2100 RLU
same,Cyno Albumin (RLU),[2],2000 RLU
"A10V, G42A (designed binder, Variant of B7; not shown: His tag: FN3 domains were purified as His-tagged proteins) MLPAPKNLVVSRVTEDSARLSWTAPDAAFDSFNIAYWEPGIAGEAIWLRVPGSERSYDLTGLKPGTEYKVWIHGVKGGASSPPLIARFTT",Human Albumin (RLU),[1],4480 RLU
same,Cyno Albumin (RLU),[2],9180 RLU
"A10V, K69A (designed binder, Variant of B7; not shown: His tag: FN3 domains were purified as His-tagged proteins) MLPAPKNLVVSRVTEDSARLSWTAPDAAFDSFNIAYWEPGIGGEAIWLRVPGSERSYDLTGLKPGTEYAVWIHGVKGGASSPPLIARFTT",Human Albumin (RLU),[1],15900 RLU
same,Cyno Albumin (RLU),[2],42300 RLU
"A10V, S80A (designed binder, Variant of B7; not shown: His tag: FN3 domains were purified as His-tagged proteins) MLPAPKNLVVSRVTEDSARLSWTAPDAAFDSFNIAYWEPGIGGEAIWLRVPGSERSYDLTGLKPGTEYKVWIHGVKGGAASPPLIARFTT",Human Albumin (RLU),[1],2950 RLU
same,Cyno Albumin (RLU),[2],2950 RLU
"A10V, A35S (designed binder, Variant of B7; not shown: His tag: FN3 domains were purified as His-tagged proteins) MLPAPKNLVVSRVTEDSARLSWTAPDAAFDSFNISYWEPGIGGEAIWLRVPGSERSYDLTGLKPGTEYKVWIHGVKGGASSPPLIARFTT",Human Albumin (RLU),[1],2950 RLU
same,Cyno Albumin (RLU),[2],2950 RLU
"A10V, R87A (designed binder, Variant of B7; not shown: His tag: FN3 domains were purified as His-tagged proteins) MLPAPKNLVVSRVTEDSARLSWTAPDAAFDSFNIAYWEPGIGGEAIWLRVPGSERSYDLTGLKPGTEYKVWIHGVKGGASSPPLIAAFTT",Human Albumin (RLU),[1],47400 RLU
same,Cyno Albumin (RLU),[2],66300 RLU
"wt Tencon (designed binder, also called wild type tencon) LPAPKNLVVSEVTEDSLRLSWTAPDAAFDSFLIQYQESEKVGEAINLTVPGSERSYDLTGLKPGTEYTVSIYGVKGGHRSNPLSAEFTT",binding result,[5],no binding (tested: 667 nM)
same,binding result,[6],no binding (tested: 667 nM)
same,Human Albumin (RLU),[1],8350 RLU
same,Cyno Albumin (RLU),[2],775 RLU
